B1: CPEB3 Ribozyme (parent)
chain: UAACAGGGGGCCACAGCAGAAGCGUUCACGUCGCAGCCCCUGUCAGAUUCUGGUGAAUCUGCGAAUUCUGCUGUAUAUCUC

This series covers variants of B1. The series can be described thus: self-cleavage, relative activity (ratio to wild type); higher = more cleavage; in vitro, sequencing. The method in brief:
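Relative activity compares each variant's cleaved/total read fraction with that of the unmutated ribozyme. To get these fractions, barcoded CPEB3 ribozyme libraries from rounds of error-prone PCR were transcribed with T7 RNA polymerase for 5 hours at 37°C and then given 15 min of DNase I treatment before EDTA was added. The RNAs were reverse transcribed with template switching and sequenced on Illumina, and DNA sequencing linked barcodes to variants. A minimum of 5 reads applied, and three batches were averaged.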
As to G19A U69C, the self-cleavage stood at 0.13.
The same measure for A20G A77U: 0.83.
The same measure for A20G A77G: 0.91.
The result for A20G A77C reads 0.79; that for A20C U58C, 0.43; that for A20C A56G, 0.27.
On to A20C A56C, for which the self-cleavage was 0.22.
The result for G19U G63U reads 0.28; that for A20C U72C, 0.3.
The result for A20C U72A reads 0.33; that for A20C U72G, 0.09; that for A20C, 0.3.
The result for A20G reads 0.89; that for A20G C59G, 0.45; that for A20G C59U, 0.82.
Consider G19C U60C, for which the self-cleavage was 0.15.
The same measure for G19C U60A: 0.16; for G19A U66G: 0.51.
Regarding G19A U66A, the self-cleavage was determined as 0.13.
The same measure for G19A U66C: 0.44.
For the variant G19U A21G, the self-cleavage is 0.2.
The result for A20C U41C reads 0.29; that for G19C U49A, 0.36.
The result for G19A U54C reads 0.23; that for G19C A56G, 0.07.
The result for G19C A56U reads 0.19; that for A20G A28U, 0.58.
A20G A28C: the self-cleavage was found to be 0.52.
The result for A20G A28G reads 0.44.
The result for G19U U49C reads 0.15; that for G19U U49A, 0.08; that for G19C A35C, 0.2.
The result for G19C A35U reads 0.22.
For the variant A20G U26G, the self-cleavage was determined as 0.36.
The result for A20G U26C reads 0.37; that for A20G U26A, 0.77; that for G19A U41C, 0.22.
In the case of G19U U72C, the self-cleavage came out at 0.4.
Take G19U U72G: the self-cleavage was determined as 0.4.
The same measure for G19U U72A: 0.32.
The same measure for G19A C62U: 0.36; for G19C A75U: 0.29; for G19C A28U: 0.07.
Consider G19C U26C, for which the self-cleavage amounted to 0.27.
The same measure for G19A G52A: 0.16; for G19A U78A: 0.47.
The same measure for G19U U25G: 0.2.
The same measure for G19U U25C: 0.08; for G19U U25A: 0.19; for A20C U54C: 0.2.
For the variant A20C U74C, the self-cleavage is 0.46.
Regarding A20G A35C, the self-cleavage is 0.65.
A20G A35U: the self-cleavage came to 0.34.
The result for A20G A35G reads 1.25; that for G19U U74C, 0.56; that for A20C U31C, 0.14.
Turning to G19A C32A, the self-cleavage was found to be 0.08.
The result for A20C C29U reads 0.12; that for G19A A77G, 0.3; that for G19C C68U, 0.63.
The same measure for A20G C40A: 0.23; for A20G C40U: 0.46; for A20G A45C: 0.24.
Consider A20G A45G, for which the self-cleavage turned out to be 0.61.
The same measure for A20G A45U: 0.3.
Regarding A20G C68U, the self-cleavage was 0.75.
Turning to A20G C68A, the self-cleavage stood at 0.24.
The same measure for G19A U60G: 0.4; for A20G C38G: 0.12.
The result for A20G C38U reads 0.37.
The result for A20G C38A reads 0.37.
A20C U43A: the self-cleavage amounted to 0.35.
The same measure for A20C U43C: 0.28; for A20G A47G: 0.75; for A20G A47U: 0.42.
The result for A20G A47C reads 0.44; that for G19A A65G, 0.51.
On to A20C A35G, for which the self-cleavage turned out to be 0.88.
On to A20C A35U, for which the self-cleavage amounted to 0.17.
The result for A20G U66A reads 0.33; that for A20G U66C, 0.37.
The same measure for A20G U66G: 0.37; for A20G C34A: 0.11.
The result for A20C G24A reads 0.21; that for A20C G24C, 0.1; that for G19A C39A, 0.11.
For G19A C39U, the self-cleavage stood at 0.33.
The result for G19U U41C reads 0.22; that for G19U U41A, 0.22.
The same measure for G19U U80C: 0.26; for G19U U80A: 0.19; for A20G C32U: 0.22.
The result for A20G C32A reads 0.27.
Regarding A20G C32G, the self-cleavage was 0.12.
The same measure for A20G C79U: 0.85; for A20G C79G: 1.09; for A20G C79A: 1.09.
On to A20G A64U, for which the self-cleavage came out at 0.31.
The result for A20G A64G reads 0.65; that for A20G A64C, 0.53.
The result for G19C reads 0.29.
Regarding G19U, the self-cleavage is 0.27.
The result for A20G U41G reads 0.35; that for A20G U41A, 0.28; that for A20G U41C, 0.89.
The result for A20G U49C reads 0.31; that for A20G U49A, 0.34.
The same measure for A20G U49G: 0.28; for G19U A75U: 0.28.
On to G19A U48C, for which the self-cleavage was 0.16.
The same measure for A20G G24A: 0.29.
The same measure for A20G G24U: 0.14; for G19C G53A: 0.09.
The result for A20G U60C reads 0.34; that for A20G U60A, 0.35; that for A20G U31G, 0.58.
With A20G U31A, the self-cleavage stood at 0.37.
The result for A20G U31C reads 0.56.
The result for A20C G30U reads 0.05; that for A20G A57G, 0.7.
For A20G A57U, the self-cleavage is 0.53.
The result for A20G A57C reads 0.26.
The result for G19U A57C reads 0.19.
As to G19U A57G, the self-cleavage came out at 0.48.
As for A20C A47G, the self-cleavage turned out to be 0.45.
The same measure for A20C A47U: 0.47; for G19C U48A: 0.18.
The result for G19C U48C reads 0.35; that for G19A U80A, 0.58; that for G19A U80C, 0.27.
The result for G19U C81U reads 0.34; that for A20C C32A, 0.25; that for G19U A20G, 0.29.
As to G19U A20U, the self-cleavage came to 0.42.
The same measure for G19C C40U: 0.29.
The same measure for A20G C44A: 0.32; for A20G C44U: 0.21.
The same measure for G19C U41A: 0.44; for G19C U41G: 0.32.
Turning to G19C U41C, the self-cleavage was determined as 0.18.
The result for G19A U43A reads 0.36.
The same measure for G19U A56G: 0.5.
Take G19U A56U: the self-cleavage is 0.14.
The same measure for G19C G24A: 0.11.
Turning to A20G U58A, the self-cleavage turned out to be 0.27.
With A20G U58G, the self-cleavage was found to be 0.11.
Consider A20G U58C, for which the self-cleavage is 0.36.
The same measure for G19C U25C: 0.06.
On to G19U A47U, for which the self-cleavage is 0.5.
The result for G19U A47G reads 0.22.
The result for A20G A75G reads 0.81.
The same measure for A20G A75U: 0.71; for G19U U48A: 0.2.
On to G19U U48C, for which the self-cleavage was determined as 0.2.
The result for A20G A65G reads 0.32.
The result for A20G A65U reads 0.29.
On to A20G A65C, for which the self-cleavage stood at 0.13.
The result for G19A U51A reads 0.31.
On to G19A U51C, for which the self-cleavage came out at 0.32.
The same measure for G19C U67C: 0.21; for G19A C29G: 0.24; for G19A G36C: 0.14.
As for A20G G42A, the self-cleavage amounted to 0.53.
The result for A20G G42U reads 0.22.
The same measure for A20G G70A: 0.33; for A20G G70C: 0.19.
Consider G19U C32G, for which the self-cleavage amounted to 0.19.

(Values after the RNAGym collection of RNA variant scans (doi:10.1093/nar/gkz1192).)
